Source: paper PMC9367181 (Chemico-Biological Interactions, 2022)

T1: human carboxylesterase 1 (Homo sapiens, UniProt P23141)
T1 sequence (P23141 18-567): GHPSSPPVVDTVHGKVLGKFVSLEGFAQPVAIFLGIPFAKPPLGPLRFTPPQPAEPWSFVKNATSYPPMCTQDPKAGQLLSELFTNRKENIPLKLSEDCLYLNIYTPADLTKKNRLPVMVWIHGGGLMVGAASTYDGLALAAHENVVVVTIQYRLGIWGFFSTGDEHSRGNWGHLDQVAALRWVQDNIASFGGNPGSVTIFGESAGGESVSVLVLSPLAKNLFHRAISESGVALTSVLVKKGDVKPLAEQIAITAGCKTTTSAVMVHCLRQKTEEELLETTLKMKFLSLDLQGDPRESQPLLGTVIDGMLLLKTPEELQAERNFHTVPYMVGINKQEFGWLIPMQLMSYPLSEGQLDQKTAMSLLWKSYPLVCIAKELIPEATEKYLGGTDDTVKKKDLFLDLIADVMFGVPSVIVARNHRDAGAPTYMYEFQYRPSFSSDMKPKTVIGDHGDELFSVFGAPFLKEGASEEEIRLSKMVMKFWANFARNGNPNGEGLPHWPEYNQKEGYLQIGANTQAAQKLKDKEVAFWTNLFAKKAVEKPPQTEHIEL


Columns and labels:
human carboxylesterase 1 = molecular target: T1, human carboxylesterase 1; test: inhibition of remdesivir hydrolysis in CES1-expressing cell S9 fraction, HPLC; assay type: biochemical
[1] = substrate: CCC(CC)COC(=O)[C@H](C)N[P@](=O)(OC[C@H]1O[C@@](C#N)(c2ccc3c(N)ncnn23)[C@H](O)[C@@H]1O)Oc1ccccc1; test: Michaelis-Menten kinetics of hydrolysis to GS-704277 in S9 fraction, HPLC; assay type: biochemical, Homo sapiens

Molecule	Ki (human carboxylesterase 1) [nM]	Km [1] [µM]
C=C(C)[C@@H]1CCC(C)=C[C@H]1c1c(O)cc(CCCCC)cc1O [cannabidiol]	890	–
human carboxylesterase 1 (Homo sapiens) (protein) GHPSSPPVVDTVHGKVLGKFVSLEGFAQPVAIFLGIPFAKPPLGPLRFTPPQPAEPWSFVKNATSYPPMCTQDPKAGQLLSELFTNRKENIPLKLSEDCLYLNIYTPADLTKKNRLPVMVWIHGGGLMVGAASTYDGLALAAHENVVVVTIQYRLGIWGFFSTGDEHSRGNWGHLDQVAALRWVQDNIASFGGNPGSVTIFGESAGGESVSVLVLSPLAKNLFHRAISESGVALTSVLVKKGDVKPLAEQIAITAGCKTTTSAVMVHCLRQKTEEELLETTLKMKFLSLDLQGDPRESQPLLGTVIDGMLLLKTPEELQAERNFHTVPYMVGINKQEFGWLIPMQLMSYPLSEGQLDQKTAMSLLWKSYPLVCIAKELIPEATEKYLGGTDDTVKKKDLFLDLIADVMFGVPSVIVARNHRDAGAPTYMYEFQYRPSFSSDMKPKTVIGDHGDELFSVFGAPFLKEGASEEEIRLSKMVMKFWANFARNGNPNGEGLPHWPEYNQKEGYLQIGANTQAAQKLKDKEVAFWTNLFAKKAVEKPPQTEHIEL	–	14.19
human carboxylesterase 1 (Homo sapiens; G143E) (protein) GHPSSPPVVDTVHGKVLGKFVSLEGFAQPVAIFLGIPFAKPPLGPLRFTPPQPAEPWSFVKNATSYPPMCTQDPKAGQLLSELFTNRKENIPLKLSEDCLYLNIYTPADLTKKNRLPVMVWIHGGELMVGAASTYDGLALAAHENVVVVTIQYRLGIWGFFSTGDEHSRGNWGHLDQVAALRWVQDNIASFGGNPGSVTIFGESAGGESVSVLVLSPLAKNLFHRAISESGVALTSVLVKKGDVKPLAEQIAITAGCKTTTSAVMVHCLRQKTEEELLETTLKMKFLSLDLQGDPRESQPLLGTVIDGMLLLKTPEELQAERNFHTVPYMVGINKQEFGWLIPMQLMSYPLSEGQLDQKTAMSLLWKSYPLVCIAKELIPEATEKYLGGTDDTVKKKDLFLDLIADVMFGVPSVIVARNHRDAGAPTYMYEFQYRPSFSSDMKPKTVIGDHGDELFSVFGAPFLKEGASEEEIRLSKMVMKFWANFARNGNPNGEGLPHWPEYNQKEGYLQIGANTQAAQKLKDKEVAFWTNLFAKKAVEKPPQTEHIEL	–	93.94
